Here are results for one protein from article PMC12005531, “Structure of the scaffolding protein and portal within the bacteriophage P22 procapsid provides insights into the self-assembly process” (PLOS Biology, 2025).

Values joined by “and” are separate entries in the source; they are usually repeats but may differ in a detail not shown here. Identical values can stand only once.

This series deals with the molecule itself. Briefly: cryo-EM structure; P22 procapsids (upper CsCl band) from infected S. typhimurium, in phage buffer (10 mM Tris-HCl, 1 mM MgCl2, pH 7.4); symmetry-mismatch reconstruction at about 9 Å and local reconstructions (portal 3.0 Å with C12, nodules 4.9 Å, SP trimer 6.9 Å, SP tetramer 6.9 Å, C-loop 6.7 Å); AlphaFold2 model of gp8 fitted into the maps.

B1: bacteriophage P22 scaffolding protein gp8 (natural protein, UniProt P26748 1-303, looked up)
chain: MEPTTEIQATEDLTLSGDHAAASADSLVVDNANDNAGQEEGFEIVLKDDETAPKQDPAKNAEFARRRIERKRQRELEQQMEAVKRGELPESLRVNPDLPPQPDINAYLSEEGLAKYDYDNSRALAAFNAANTEWLMKAQDARSNAVAEQGRKTQEFTQQSAQYVEAARKHYDAAEKLNIPDYQEKEDAFMQLVPPAVGADIMRLFPEKSAALMYHLGANPEKARQLLAMDGQSALIELTRLSERLTLKPRGKQISSAPPADQPITGDVSAANKDAIRKQMDAAASKGDVETYRKLKAKLKGIR
notes: scaffolding protein gp8 of bacteriophage P22, 303 amino acid residues, 33.6 kDa; domains: N-loop 1-57, base 58-84 and 163-245, column 85-162, C-loop 246-267, hook 268-303; the N-loop was not resolved; Native protein within the procapsid; About 250-300 copies per procapsid, from cited work; also called SP; P22 SP; source: phage P22 propagated in S. typhimurium; inside procapsids purified by CsCl …
For B1, the “stoichiometry N” value was 2 and 3 and 4.
